{"source": "paper PMC5394233", "about": "“Structural and functional analysis of the human POT1-TPP1 telomeric complex” (Nature Communications, 2017)", "key": {"flPOT1 C591W": {"biological_target": "T1, flPOT1 C591W (Homo sapiens, UniProt Q9NUX5 1-634, C591W)", "T1 sequence": "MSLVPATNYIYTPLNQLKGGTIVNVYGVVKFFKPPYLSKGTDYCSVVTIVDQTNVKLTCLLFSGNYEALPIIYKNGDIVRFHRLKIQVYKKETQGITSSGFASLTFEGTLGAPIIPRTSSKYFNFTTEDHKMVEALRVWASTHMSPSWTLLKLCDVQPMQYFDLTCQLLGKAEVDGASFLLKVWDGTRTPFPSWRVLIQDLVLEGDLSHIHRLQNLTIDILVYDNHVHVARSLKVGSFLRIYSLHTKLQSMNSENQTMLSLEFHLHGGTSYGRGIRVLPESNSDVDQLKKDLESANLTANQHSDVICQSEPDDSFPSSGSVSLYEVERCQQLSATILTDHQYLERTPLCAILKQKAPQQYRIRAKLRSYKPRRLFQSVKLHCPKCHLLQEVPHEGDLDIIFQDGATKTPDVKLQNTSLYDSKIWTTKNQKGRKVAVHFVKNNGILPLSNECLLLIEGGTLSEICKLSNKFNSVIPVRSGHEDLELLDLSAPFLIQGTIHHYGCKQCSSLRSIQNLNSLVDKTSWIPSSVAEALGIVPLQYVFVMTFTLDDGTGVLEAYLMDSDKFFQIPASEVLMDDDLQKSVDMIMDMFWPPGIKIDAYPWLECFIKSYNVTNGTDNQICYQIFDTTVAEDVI", "assay": "fluorescence polarization; FP: 20 mM Hepes pH 7.5, 100 mM KCl, 2 mM MgCl2, 1 mM EDTA, 2 mM DTT, 1 mg/ml BSA, 5% glycerol, 75 nM polyT50 competitor, 2.5 nM probe, room temperature 30 min", "conditions": "protein: recombinant; tags: N-terminal His6-pMocr, TEV-cleaved; label: 5' 6-FAM; single strand"}, "flPOT1 WT;TPP1(87)": {"biological_target": "flPOT1 WT;TPP1(87) (Homo sapiens;Homo sapiens, UniProt Q9NUX5;Q96AP0 1-634;1-458, |)", "sequence (Q9NUX5 whole entry, chain 1 of 2)": "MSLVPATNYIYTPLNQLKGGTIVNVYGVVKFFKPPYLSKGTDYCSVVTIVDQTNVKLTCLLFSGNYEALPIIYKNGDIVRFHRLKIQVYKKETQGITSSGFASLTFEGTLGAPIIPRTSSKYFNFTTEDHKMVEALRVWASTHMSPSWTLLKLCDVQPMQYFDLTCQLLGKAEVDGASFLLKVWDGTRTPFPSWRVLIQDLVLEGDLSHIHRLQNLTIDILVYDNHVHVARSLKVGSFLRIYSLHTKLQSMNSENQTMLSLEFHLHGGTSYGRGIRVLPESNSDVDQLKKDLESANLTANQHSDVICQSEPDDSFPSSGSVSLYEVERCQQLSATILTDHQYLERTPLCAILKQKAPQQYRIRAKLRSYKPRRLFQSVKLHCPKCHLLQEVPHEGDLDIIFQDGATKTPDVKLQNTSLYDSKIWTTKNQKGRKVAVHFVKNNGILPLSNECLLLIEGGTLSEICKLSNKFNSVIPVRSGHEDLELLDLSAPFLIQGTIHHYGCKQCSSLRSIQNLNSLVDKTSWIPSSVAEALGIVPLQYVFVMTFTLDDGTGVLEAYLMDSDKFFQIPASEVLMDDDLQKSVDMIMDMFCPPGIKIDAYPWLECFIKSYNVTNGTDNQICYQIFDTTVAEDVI", "sequence (Q96AP0 whole entry, chain 2 of 2)": "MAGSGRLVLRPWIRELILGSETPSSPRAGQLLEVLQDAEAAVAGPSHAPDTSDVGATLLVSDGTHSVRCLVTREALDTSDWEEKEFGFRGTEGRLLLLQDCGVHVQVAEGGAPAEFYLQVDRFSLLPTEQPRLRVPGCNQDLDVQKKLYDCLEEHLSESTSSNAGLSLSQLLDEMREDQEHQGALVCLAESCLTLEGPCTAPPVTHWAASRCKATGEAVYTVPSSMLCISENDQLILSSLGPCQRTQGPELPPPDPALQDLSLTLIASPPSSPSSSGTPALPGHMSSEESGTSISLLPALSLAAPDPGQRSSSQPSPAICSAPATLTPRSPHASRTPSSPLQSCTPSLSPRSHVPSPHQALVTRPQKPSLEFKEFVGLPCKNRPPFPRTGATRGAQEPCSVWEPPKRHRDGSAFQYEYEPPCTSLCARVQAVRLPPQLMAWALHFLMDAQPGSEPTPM", "assay": "fluorescence polarization; FP: 20 mM Hepes pH 7.5, 100 mM KCl, 2 mM MgCl2, 1 mM EDTA, 2 mM DTT, 1 mg/ml BSA, 5% glycerol, 75 nM polyT50 competitor, 2.5 nM probe, room temperature 30 min", "conditions": "protein: recombinant;recombinant, tags: N-terminal His6-pMocr, TEV-cleaved;N-terminal His6-MBP, copies: 1;1, label: 5' 6-FAM, single strand"}, "flPOT1 Q623H": {"biological_target": "T2, flPOT1 Q623H (Homo sapiens, UniProt Q9NUX5 1-634, Q623H)", "T2 sequence": "T1 sequence with W591C, Q623H", "assay": "fluorescence polarization; FP: 20 mM Hepes pH 7.5, 100 mM KCl, 2 mM MgCl2, 1 mM EDTA, 2 mM DTT, 1 mg/ml BSA, 5% glycerol, 75 nM polyT50 competitor, 2.5 nM probe, room temperature 30 min", "conditions": "protein: recombinant; tags: N-terminal His6-pMocr, TEV-cleaved; label: 5' 6-FAM; single strand"}, "POT1C;TPP1(PBD)": {"biological_target": "POT1C;TPP1(PBD) (Homo sapiens;Homo sapiens, UniProt Q9NUX5;Q96AP0 330-634;169-251, |)", "sequence (Q96AP0 169-251, one chain of several)": "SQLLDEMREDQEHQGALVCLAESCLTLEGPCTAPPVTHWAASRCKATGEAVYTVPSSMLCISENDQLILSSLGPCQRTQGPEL", "assay": "fluorescence polarization; up to 5 uM protein; FP: 20 mM Hepes pH 7.5, 100 mM KCl, 2 mM MgCl2, 1 mM EDTA, 2 mM DTT, 1 mg/ml BSA, 5% glycerol, 75 nM polyT50 competitor, 2.5 nM probe, room temperature 30 min", "conditions": "protein: recombinant;recombinant; tags: N-terminal His6-pMocr, TEV-cleaved;N-terminal His6, TEV-cleaved; copies: 1;1; label: 5' 6-FAM; single strand"}, "flPOT1 L343F;TPP1(87)": {"biological_target": "flPOT1 L343F;TPP1(87) (Homo sapiens;Homo sapiens, UniProt Q9NUX5;Q96AP0 1-634;1-458, L343F|)", "sequence (Q96AP0 whole entry, stated change not applied, one chain of several)": "as the sequence (Q96AP0 whole entry, chain 2 of 2) above", "assay": "fluorescence polarization; wild-type affinity stated; FP: 20 mM Hepes pH 7.5, 100 mM KCl, 2 mM MgCl2, 1 mM EDTA, 2 mM DTT, 1 mg/ml BSA, 5% glycerol, 75 nM polyT50 competitor, 2.5 nM probe, room temperature 30 min", "conditions": "protein: recombinant;recombinant, tags: N-terminal His6-pMocr, TEV-cleaved;N-terminal His6-MBP, copies: 1;1, label: 5' 6-FAM, single strand"}, "flPOT1 A532P;TPP1(87)": {"biological_target": "flPOT1 A532P;TPP1(87) (Homo sapiens;Homo sapiens, UniProt Q9NUX5;Q96AP0 1-634;1-458, A532P|)", "sequence (Q96AP0 whole entry, stated change not applied, one chain of several)": "as the sequence (Q96AP0 whole entry, chain 2 of 2) above", "assay": "fluorescence polarization; wild-type affinity stated; FP: 20 mM Hepes pH 7.5, 100 mM KCl, 2 mM MgCl2, 1 mM EDTA, 2 mM DTT, 1 mg/ml BSA, 5% glycerol, 75 nM polyT50 competitor, 2.5 nM probe, room temperature 30 min", "conditions": "protein: recombinant;recombinant, tags: N-terminal His6-pMocr, TEV-cleaved;N-terminal His6-MBP, copies: 1;1, label: 5' 6-FAM, single strand"}, "flPOT1 R477T;TPP1(87)": {"biological_target": "flPOT1 R477T;TPP1(87) (Homo sapiens;Homo sapiens, UniProt Q9NUX5;Q96AP0 1-634;1-458, R477T|)", "sequence (Q96AP0 whole entry, stated change not applied, one chain of several)": "as the sequence (Q96AP0 whole entry, chain 2 of 2) above", "assay": "fluorescence polarization; wild-type affinity stated; FP: 20 mM Hepes pH 7.5, 100 mM KCl, 2 mM MgCl2, 1 mM EDTA, 2 mM DTT, 1 mg/ml BSA, 5% glycerol, 75 nM polyT50 competitor, 2.5 nM probe, room temperature 30 min", "conditions": "protein: recombinant;recombinant, tags: N-terminal His6-pMocr, TEV-cleaved;N-terminal His6-MBP, copies: 1;1, label: 5' 6-FAM, single strand"}}, "note": "Positions count from the first letter of the chain named."}
{"binder": "TTAGGGTTAGGGTTAGGG (ssDNA)", "note": "[telomeric 18mer (TTAGGG)3]", "values": [{"measurement": "Kd", "setting": "flPOT1 C591W", "value": "~20", "unit": "nM"}, {"measurement": "Kd", "setting": "flPOT1 WT;TPP1(87)", "value": "~5.8", "unit": "nM"}, {"measurement": "Kd", "setting": "flPOT1 Q623H", "value": "~20", "unit": "nM"}, {"measurement": "binding result", "setting": "POT1C;TPP1(PBD)", "value": "no binding"}, {"measurement": "binding result", "setting": "flPOT1 L343F;TPP1(87)", "value": "binds"}, {"measurement": "binding result", "setting": "flPOT1 A532P;TPP1(87)", "value": "binds"}, {"measurement": "binding result", "setting": "flPOT1 R477T;TPP1(87)", "value": "binds"}]}
